The results in this text go back to publication PMC11609053.

In data set [1] the target is T1, SCAB_Lrp (Streptomyces scabies 87.22?) (UniProt C9ZB67).
T1 sequence: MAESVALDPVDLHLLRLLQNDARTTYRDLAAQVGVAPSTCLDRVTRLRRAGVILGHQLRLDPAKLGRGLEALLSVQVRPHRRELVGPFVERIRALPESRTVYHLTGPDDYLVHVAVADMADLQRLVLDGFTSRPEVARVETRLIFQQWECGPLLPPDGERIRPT
Put plainly: EMSA. Conditions: 20 uL: 50 ng biotin-labelled probe, 0-400 nM protein, 2 uL binding buffer (Liu et al. 2023; composition, pH and temperature not given), chemiluminescent ….

Data set [2] concerns the target T2, SCAB_Lrp2 (Streptomyces scabies 87.22) (UniProt C9Z7M0).
T2 sequence: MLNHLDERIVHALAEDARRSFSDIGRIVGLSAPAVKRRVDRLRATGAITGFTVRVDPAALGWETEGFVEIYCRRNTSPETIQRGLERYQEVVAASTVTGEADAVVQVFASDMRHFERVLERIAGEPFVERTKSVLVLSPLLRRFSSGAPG
The experiment in a line: EMSA. The conditions noted are these: 20 uL: 50 ng biotin-labelled probe, 0-400 nM protein, 2 uL binding buffer (Liu et al. 2023; composition, pH and temperature not given), chemiluminescent ….

“GTCGTCTTCGGCGTCTGGATGGCCGCCGGGCTCGTGTTCTACTTCAGTTACGGCCACCGGCGCTCGCGTCTGGCTGCGGCCCCGGCCCCCGCCGACCCCACGTCCCCGCCGGCTCCCCCGTCCACGTCCCCGTCGACTCCAGAGAAGTGATCCACCCGCAGTGCTGAACCATCTCGACGA (double strand) [P75421]”: the binding result in data set [1] and in data set [2] was “binds” throughout. Take “AAGGCAGTACCTTGCGCTCGGCGCGTCGGCCGGAAATCGAGTGAAGCAAGATGCTTCCCCCTTCTCGGCTCCGAGCGCGACAAACAGTTCAGAACAGGCCACGGCGAGATCCTCCGCAAGGAACGAACCCAGTCGTTCACCCGCTTAGTTTGATTGAAATTTCAACTACCAGGTCAATCG (double strand) [PtxtR]”: in data set [2], the binding entry is on record as “binds”.
